Patent publication US12673971B2, “Amyloid-β aggregation inhibitor, pharmaceutical composition foramyloid-β aggregation disease, and use application of same” (O-FORCE CO., LTD, priority 2020, dated 2026)

What was measured:
C57BL/6 mice [1] = experiment: Object recognition test (ORT); format: in vivo; settings: administration group Aβ25-35(+)/GSGFK(+), day 52 (test over 3 days from day 49), FIG. 6
Protocol: In this example, 2 μL of 0.5 μg/μL Aβ25-35 and 2 μL of 0.25 μg/μL Peptide 2 were directly administered using a micro syringe to the CA1 area of the hippocampus of the brain of the administration group of C57BL/6 mice (7 to 13 months old mice) (n=3). In a similar manner, 2 μL of 0.5 μg/μL Aβ25-35 was directly administered using a micro syringe to the CA1 area of the hippocampus of the brain of the negative control group of C57BL/6 mice (n=3). Neither 2 μL of Aβ25-35 nor Peptide 2 was administered to the positive control group of C57BL/6 mice (n=3). […]
The object recognition test (ORT) from day 49 was conducted as follows. […] For each group, the speed of movement of the mice in the cage was measured, as well as the percentage (%) of time they stayed in the center region of the cage (the inner region being at least 7.5 cm away from a side wall of the cage).
After one day, two identical objects were placed in the cage and the mice were allowed to explore freely for one hour (sample phase). […] Also, the approach time of the mice to each object was measured in each of the sample and test phases. The percentage of the exploration time for the object on the right side with respect to the total exploration time was then determined (100× right side exploration time/total exploration time (%)).

Aβ25-35 [2] = target: T1, Aβ25-35 (Homo sapiens, UniProt P05067); experiment: ThT fluorescence of the solutions administered to the mouse groups; format: biochemical; settings: 0.5 μg/μL Aβ25-35 and 0.25 μg/μL Peptide 2 mixed in equal amounts, 37° C., day 11, vs Aβ25-35 solution, FIG. 3
T1 construct: The Aβ25-35 is a peptide constituted by 11 amino acid residues consisting of the 25th to 35th amino acid residues
Protocol: In parallel with the administration to the mice in each group, the fluorescence intensity was measured for the solutions administered to each group. Specifically, a mixed solution obtained by mixing 0.5 μg/μL Aβ25-35 and 0.25 μg/μL Peptide 2 in equal amounts, which was the same as that administered to the administration group, and a 0.5 μg/μL Aβ25-35 solution, which was the same as that administered to the negative control group, were each added in an amount of 100 μL per well, and 10 μL of 1 mmol/L ThT was further added to the well immediately before measurement. These reaction solutions were each reacted at 37° C., and the fluorescence intensity was measured as in Example 1 above.

Aβ25-35 aggregates = target: T2, Aβ25-35 aggregates (Homo sapiens, UniProt P05067); experiment: Dissociation of pre-formed Aβ25-35 aggregates (ThT fluorescence); format: biochemical; settings: 40 μL of 10 mmol/L peptide added to 4000 μL reaction solution with aggregates of 0.1 mM Aβ25-35 (24 h, 37° C.); 4 hr vs 0 hr, FIG. 7
T2 construct: The Aβ25-35 is a peptide constituted by 11 amino acid residues consisting of the 25th to 35th amino acid residues
Protocol: A reaction solution with the following composition was prepared and incubated at 37° C. for 24 hours to form aggregates of Aβ25-35. After incubation, the fluorescence intensities of the reaction solution with the following composition to which Aβ25-35 was added and a reaction solution to which water was added instead of Aβ25-35 were measured as in Example 1.
Then, 40 μL of 10 mmol/L Peptide 1 or Peptide 2 was added to 4000 μL of the reaction solution in which the aggregates were formed (0 hr), the mixture was incubated at 37° C., and the change in fluorescence intensity over time was measured (n=3). As a control, a reaction solution to which water was added instead of Peptide 1 and Peptide 2 was also measured at 0 hr in the same way. Then, the percentage (%) of decrease in fluorescence intensity after 4 hr was obtained from the fluorescence intensity at 0 hr.

Aβ25-35 [3] = target: T1, Aβ25-35; experiment: Aggregation inhibition assay (thioflavin T fluorescence); format: biochemical; settings: 0.1 mM peptide, 0.1 mM Aβ25-35, 0.1 mM ThT, Tris-HCl pH 7.5, 37° C., FIG. 1; for fluorescence intensity of the reaction solution after 8 and 24 hours: vs negative control; for fluorescence intensity of the reaction solution 4 hours after incubation: vs negative control (Aβ25-35 only)
Excerpt: An Aβ-derived fragment peptide was used for aggregation of Aβ. Aβ25-35, which has high aggregability, was selected as the fragment peptide. The Aβ25-35 is a peptide constituted by 11 amino acid residues consisting of the 25th to 35th amino acid residues in the full length sequence of human-derived Aβ (GSNKGAIIGLM (SEQ ID NO: 4), hereinafter also referred to as Ab25-35).
The fluorescent dye thioflavin T (ThT) binds to Ab aggregates and emits strong fluorescence upon binding, and thus the increase or inhibition of aggregation can be determined by measuring the fluorescence intensity. Thus, the inhibition of aggregation of Aβ25-35 by Peptide 1 (GSGNR (SEQ ID NO: 1)) and Peptide 2 (GSGFK (SEQ ID NO: 2)) was checked using ThT.
Specifically, a reaction solution with the following composition was prepared and dispensed into wells such that the amount of the reaction solution per well was 300 μL, and incubated at 37° C., and the change in fluorescence intensity over time was measured using a measurement device (product name Cytation5, manufactured by BioTek) (n=3). The measurement wavelengths were set such that the excitation wavelength (ex) was 444 nm and the emission wavelength (em) was 480 nm. As a control, a reaction solution to which water was added instead of Peptide 1 and Peptide 2 was also measured in the same way.

C57BL/6 mice [4] = experiment: Y-maze (short-term memory assessment) test; format: in vivo; settings: 2 μL of 0.5 μg/μL Aβ25-35 and 2 μL of 0.25 μg/μL Peptide 2 into hippocampal CA1; days 11, 27 and 39; vs negative control group (Aβ25-35 only), FIG. 4
Protocol: In this example, 2 μL of 0.5 μg/μL Aβ25-35 and 2 μL of 0.25 μg/μL Peptide 2 were directly administered using a micro syringe to the CA1 area of the hippocampus of the brain of the administration group of C57BL/6 mice (7 to 13 months old mice) (n=3). In a similar manner, 2 μL of 0.5 μg/μL Aβ25-35 was directly administered using a micro syringe to the CA1 area of the hippocampus of the brain of the negative control group of C57BL/6 mice (n=3). Neither 2 μL of Aβ25-35 nor Peptide 2 was administered to the positive control group of C57BL/6 mice (n=3). Each group was then given a Y-maze (short-term memory assessment) test on days 11, 27, and 39 after administration, and an object recognition test over 3 days starting from day 49. • Administration group (7 months old): Aβ25-35(+)/GSGFK(+) • Negative control group (7 months old): Aβ25-35(+)/GSGFK(−) • Positive control group (13 months old): Aβ25-35(−)/GSGFK(−)
The Y-maze test was conducted in a general manner under the following conditions. That is to say, mice were placed such that their noses faced the wall at an end of one particular arm among the three arms. The mice were allowed to move freely for 10 minutes, and their behavior was captured on a monitor of an analyzer (product name: Time YM1, manufactured by O'hara & Co., Ltd.) to calculate the alternation behavior rate (alternation behavior (%)).

Aβ25-35 [5] = target: T1, Aβ25-35; experiment: Concentration assay (ThT fluorescence, varied final peptide concentration); format: biochemical; settings: for fluorescence intensity compared with the negative control: 37° C.
Protocol: The concentrations of Peptide 1 (GSGNR (SEQ ID NO: 1)) and Peptide 2 (GSGFK (SEQ ID NO: 2)) with respect to Aβ25-35 were checked. Unless otherwise indicated, measurements were performed according to (2) above.
First, as for Peptide 2 (GSGFK (SEQ ID NO: 2)), 200 μL of mixed solution with the composition shown in Table 2 below was added per well, 10 μL of 2 mmol/L ThT was further added to the well immediately before measurement, and this reaction solution was incubated at 37° C. The change in fluorescence intensity 4 hours after the start of measurement was measured using the above-mentioned measurement device (n=3). Furthermore, reaction solutions with the following composition but with different final concentrations of Peptide 2 were also measured in the same way. As a negative control, a reaction solution with the following composition to which neither Peptides 1 nor 2 was added was also measured in the same way.
Next, as for Peptide 1 (GSGNR (SEQ ID NO: 1)), 200 μL of mixed solution with the composition shown in Table 2 above was added per well, 10 μL of 2 mmol/L ThT was further added to the well immediately before measurement, and this reaction solution was incubated at 37° C. The change in fluorescence intensity 8 hours after the start of measurement was measured using the above-mentioned measurement device (n=6). Furthermore, reaction solutions with the composition above but with different final concentrations of Peptide 1 were also measured in the same way. As a negative control, a reaction solution with the composition above to which neither Peptides 1 nor 2 was added was also measured in the same way.

[6] = Peptide 2, with respect to 100 μmol/L Aβ25-35, 4 hours, FIG. 2(A)
[7] = Peptide 1, with respect to 100 μmol/L Aβ25-35, 8 hours, FIG. 2(B)

Substance | percentage of exploration time for the object on the right side, test phase compared with sample phase (C57BL/6 mice [1]) | fluorescence intensity of the mixed solution on day 11 (Aβ25-35 [2]) | decrease in fluorescence intensity 4 hours after peptide addition to pre-formed aggregates (Aβ25-35 aggregates) | fluorescence intensity of the reaction solution after 8 and 24 hours (Aβ25-35 [3]) | fluorescence intensity of the reaction solution 4 hours after incubation (Aβ25-35 [3]) | alternation behavior rate (short-term memory) (C57BL/6 mice [4]) | fluorescence intensity compared with the negative control (Aβ25-35 [5]; Peptide 2, 100 μmol/L Aβ25-35, PBS, 4 hours after start of measurement, FIG. 2(A)) | final concentration at which aggregation was inhibited in a particularly excellent manner (Aβ25-35 [5]; [6]) | final concentration at which aggregation was more effectively inhibited (Aβ25-35 [5]; [6]) [µmol/L] | final concentration at which aggregation was significantly inhibited sufficiently (Aβ25-35 [5]; [6]) [µmol/L] | fluorescence intensity compared with the negative control (Aβ25-35 [5]; Peptide 1, 100 μmol/L Aβ25-35, PBS, 8 hours after start of measurement, FIG. 2(B)) | final concentration at which aggregation was inhibited in a particularly excellent manner (Aβ25-35 [5]; [7]) | final concentration at which aggregation was significantly inhibited sufficiently (Aβ25-35 [5]; [7]) [µmol/L]
GSGFK [Peptide 2] | significant increase in the percentage of exploration time for the object on the right side in the test phase | did not show an increase in fluorescence intensity | significant decrease in fluorescence intensity | did not increase after 8 and 24 hours | slightly increased 4 hours after incubation, but it was well below the negative control | short-term memory is maintained as with the positive control group | significantly reduced the fluorescence intensity | around 10 μmol/L | ≥ 10 | ≥ 5 |  |  | 
GSGNR [Peptide 1] |  |  | significant decrease in fluorescence intensity | decreased significantly compared with the negative control after 8 and 24 hours | had increased 4 hours after incubation |  |  |  |  |  | significantly reduced the fluorescence intensity | around 10 μmol/L | ≥ 1
